This note sets out measurements from US20260049151A1 (SHENGHE CHINA BIOPHARMACEUTICAL, published 2026).

Where two headings read alike, the source gives them in different places.

As usually defined, the EC50 (read off the curve) is the midpoint of the concentration-response curve. Lower therefore signals an effect from little substance.

In experiment [1] the target is T1, Human-TNFR2-His (human, UniProt P20333 23-257).
T1 construct: Bought protein; also called human TNFR2 protein; TNFR2 protein; not shown: His tag
T1 sequence (looked up): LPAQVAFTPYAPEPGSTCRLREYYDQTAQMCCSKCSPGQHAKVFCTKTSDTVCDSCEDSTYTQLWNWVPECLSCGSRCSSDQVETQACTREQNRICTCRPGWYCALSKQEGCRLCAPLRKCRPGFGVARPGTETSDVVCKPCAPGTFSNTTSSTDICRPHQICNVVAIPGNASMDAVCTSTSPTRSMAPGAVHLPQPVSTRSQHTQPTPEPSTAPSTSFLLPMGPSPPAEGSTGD
As to the kind of experiment: ELISA: Human-TNFR2-His coated (0.1 ug/mL), antibody titrated, goat anti-human IgG Fc detection (Example 2). As to the method:
(§1) Human-TNFR2-His (manufacturer: SINO, CAT: 10417-H08H, LOT: LC15NO0412) was diluted to 0.1 μg/mL with a coating solution (1×PBS, pH7.4), and coated in 96-well ELISA plate at 100 µL/well overnight at 4° C. The coating solution was poured off. Each well was washed with 1×PBST at 300 μL, washed 4 times with a plate washer, and patted dry on a flat paper. It was blocked with 3% skim milk powder at 300 μL/well, and incubated at 37° C. for 1 h. The blocking solution was poured off, washed 4 times with a plate washer, and patted dry on a flat paper. Negative control and positive control were set up. […] The positive control and antibody were diluted to 10 μg/mL with 3% skim milk powder as the starting concentration, and then diluted by 3-fold gradient (11 gradients in total), and a blank well was set up and only the diluent was added. It was incubated at 37° C. for 1 h at 100 μL/well. The liquid in the well was discarded, washed 4 times with a plate washer, and patted dry on a flat paper. Goat anti-human IgG Fc was diluted with 3% skim milk powder at 1:10000, and incubated at 37° C. for 1 h at 100 μL/well. It was washed 6 times with a plate washer, and patted dry on a flat paper. TMB color developing solution was added at 100 μL/well, and wrapped with aluminum foil. Color development was performed at 37° C. in the dark for 8 min. Termination solution 1M HCl was added to terminate the color development reaction at 100 μL/well. Readings were taken at 450 nm on an ELISA reader.

In experiment [2] the target is T2, Human 4-1BB His (human, UniProt Q07011 24-186).
T2 construct: Bought protein; lots 198-2146F1-W6 and 2407c-214FF1-YC; also called human 4-1BB protein; 4-1BB protein; not shown: His tag
Briefly: bridging ELISA: Human TNFR2 mFc coated (0.3 ug/mL), antibody titrated, then Human 4-1BB His (0.3 ug/mL), HRP anti-His detection (Example 5). How it is done: (§2) Human TNFR2 mFc (manufacturer: Kaixia, CAT: TN-HM3R2, LOT: 031202) was diluted to 0.3 μg/mL with a coating solution (1×PBS, pH7.4) and coated into a 96-well ELISA plate at 100 μL/well at 4° C. overnight. The coating solution was poured off. Each well was washed with 1×PBST at 300 μL, washed 4 times with a plate washer, and patted dry on a flat paper. It was blocked with 3% skim milk powder at 300 μL/well, and incubated at 37° C. for 1 h. The blocking solution was poured off, washed 4 times with a plate washer, and patted dry on a flat paper. […] Starting at 50 nM, which was used as the initial concentration for 3-fold dilution, a total of 10 gradients were diluted, and a blank well was set up and only the diluent was added. It was incubated at 37° C. for 1 h at 100 µL/well. The liquid in the well was discarded, washed 4 times with a plate washer, and patted dry on a flat paper. Human 4-1BB His (manufacturer: Acro, CAT: 41B-H5258, LOT: 198-2146F1-W6) was diluted to 0.3 μg/mL, 100 μL was added to each well, and incubated at room temperature for 1 h. The plate was washed 3 times with PBST, and then the HRP-labeled his antibody was diluted with sample diluent at 1:5000, 100 μ L was added to each well, and incubated at room temperature for 1 h. It was washed 6 times with a plate washer, and patted dry on a flat paper. TMB color developing solution was added at 100 μL/well, and wrapped with aluminum foil. Color development was performed at 37° C. in the dark for 8 min. Termination solution 1M HCl was added to terminate the color development reaction at 100 μL/well. Readings were taken at 450 nm on an ELISA reader.

A further experiment deals with T3, Human TNFR2 mFc (human, UniProt P20333 23-257).
T3 construct: Bought protein; not shown: mFc
T3 sequence (looked up): T1 sequence (looked up)
The description is as above. As to the method:
as §2

Experiment [3] addresses T1, Human-TNFR2-His. Briefly: ELISA: Human-TNFR2-His coated (0.1 ug/mL), antibody titrated, goat anti-human IgG Fc detection (Example 2). As to the method:
as §1
This is another data set of the same source. A general note: ELISA stands for enzyme-linked immunosorbent assay.

Experiment [4] concerns the target T2, Human 4-1BB His. As to the kind of experiment: ELISA: Human 4-1BB His coated (0.2 ug/mL), antibody titrated, goat anti-human IgG Fc detection (Example 3). How it is done: Human 4-1BB His (manufacturer: Acro, CAT: 41B-H5258, LOT: 198-2146F1-W6) was diluted to 0.2 μg/mL with a coating solution (1×PBS, pH7.4), and coated in 96-well ELISA plate at 100 μL/well overnight at 4° C. The coating solution was poured off. Each well was washed with 1×PBST at 300 μL, washed 4 times with a plate washer, and patted dry on a flat paper. It was blocked with 3% skim milk powder at 300 μL/well, and incubated at 37° C. for 1 h. The blocking solution was poured off, washed 4 times with a plate washer, and patted dry on a flat paper. Negative control and positive control were set up. […] The variable region of the antibody sequence of the positive control consists of SEQ ID NO: 15 and SEQ ID NO: 19, with the addition of the constant region of human IgG1 (SEQ ID NO: 46 and SEQ ID NO: 47). The positive control and antibody were diluted to 10 μg/mL with 3% skim milk powder as the starting concentration, and then diluted by 3-fold gradient (11 gradients in total), and a blank well was set up and only the diluent was added. It was incubated at 37° C. for 1 h at 100 μL/well. The liquid in the well was discarded, washed 4 times with a plate washer, and patted dry on a flat paper. Goat anti-human IgG Fc was diluted with 3% skim milk powder at 1:20000, and incubated at 37° C. for 1 h at 100 μL/well. It was washed 6 times with a plate washer, and patted dry on a flat paper. TMB color developing solution was added at 100 μL/well, and wrapped with aluminum foil. Color development was performed at 37° C. in the dark for 8 min. Termination solution 1M HCl was added to terminate the color development reaction at 100 μL/well. Readings were taken at 450 nm on an ELISA reader.

A further experiment deals with T4, Human 4-1BB Fc (human, UniProt Q07011 24-186).
T4 construct: same catalogue and lot number as Human 4-1BB His; not shown: Fc
As to the kind of experiment: bridging ELISA: Human 4-1BB Fc coated (0.3 ug/mL), antibody titrated, then Human-TNFR2-His (0.3 ug/mL), HRP anti-His detection (Example 4). How it is done: Human 4-1BB Fc (manufacturer: Acro, CAT: 41B-H5258, LOT: 198-2146F1-W6) was diluted to 0.3 μg/mL with a coating solution (1×PBS, pH7.4) and coated into a 96-well ELISA plate at 100 µL/well at 4° C. overnight. The coating solution was poured off. Each well was washed with 1×PBST at 300 μL, washed 4 times with a plate washer, and patted dry on a flat sheet. It was blocked with 3% skim milk powder at 300 μL/well, and incubated at 37° C. for 1 h. The blocking solution was poured off, washed 4 times with a plate washer, and patted dry on a flat sheet. […] Starting at 50 nM, which was used as the initial concentration for 3-fold dilution, a total of 10 gradients were diluted, and a blank well was set up and only the diluent was added. It was incubated at 37° C. for 1 h at 100 μL/well. The liquid in the well was discarded, washed 4 times with a plate washer, and patted dry on a flat paper. Human-TNFR2-His (manufacturer: Sino, CAT: 10417-H08H, LOT: LC15NO0412) was diluted to 0.3 μg/mL, 100 μL was added to each well, and incubated at room temperature for 1 h. The plate was washed 3 times with PBST, and then the HRP-labeled his antibody was diluted with sample diluent at 1:5000, 100 μ L was added to each well, and incubated at room temperature for 1 h. It was washed 6 times with a plate washer, and patted dry on a flat paper. TMB color developing solution was added at 100 μL/well, and wrapped with aluminum foil. Color development was performed at 37° C. in the dark for 8 min. Termination solution 1M HCl was added to terminate the color development reaction at 100 μL/well. Readings were taken at 450 nm on an ELISA reader.

T2 sequence (Q07011 24-186 limits assumed): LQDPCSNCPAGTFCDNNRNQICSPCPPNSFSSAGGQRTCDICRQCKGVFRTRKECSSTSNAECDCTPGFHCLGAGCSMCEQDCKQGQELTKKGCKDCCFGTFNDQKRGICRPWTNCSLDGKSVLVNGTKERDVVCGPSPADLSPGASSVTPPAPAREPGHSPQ
T4 sequence (Q07011 24-186 limits assumed): as above

B1: Antibody B (bispecific antibody, human IgG1, kappa)
light: DIQMTQSPSSLSASLGDRVTISCSASQGISNYLNWYQQKPDGTVKLLIYYTSTLHSGVPSRFSGSGSGTDYTLTISSLQPEDIATYYCQQYSKLPWTFGGGTKLEIKRTVAAPSVFIFPPSDEQLKSGTASVVCLLNNFYPREAKVQWKVDNALQSGNSQESVTEQDSKDSTYSLSSTLTLSKADYEKHKVYACEVTHQGLSSPVTKSFNRGECGGGGSGGGGSEVQLVQSGAEVKKPGATVKISCKVSGYSITDYLLHWVQQAPGKCLEWMGWIDPEDAKTKYGQKFQSRVTITADTSTDTAYMELSSLRSEDTAVYYCAANSGTGTMDAWGQGTLVTVSSGGGGSGGGGSGGGGSDIVMTQSPATLSVSPGERATLSCKASQNVGSNVDWYQQKPGQSPRVLIYKASIRYTGIPARFSGSGSGTEFTLTISILQSEDFAVYFCMQSKSYPITFGCGTKLEIK
heavy: not shown
notes: IgG1 subtype; full-length 4-1BB antibody with TNFR2 scFv at the C-terminus of the light chains
Consider B1, for which the binding result in the experiment with Human-TNFR2-His [1], in the experiment with Human 4-1BB His [2] and in the experiment with Human TNFR2 mFc was “binds” throughout.

B2: Antibody F (bispecific antibody, human IgG1, kappa)
light: DIVMTQSPATLSVSPGERATLSCKASQNVGSNVDWYQQKPGQSPRVLIYKASIRYTGIPARFSGSGSGTEFTLTISILQSEDFAVYFCMQSKSYPITFGQGTKLEIKRTVAAPSVFIFPPSDEQLKSGTASVVCLLNNFYPREAKVQWKVDNALQSGNSQESVTEQDSKDSTYSLSSTLTLSKADYEKHKVYACEVTHQGLSSPVTKSFNRGECGGGGSGGGGSQVQLQESGPGLVKPSETLSLTCTVSGSSLTSYGVHWVRQPPGKCLEGLGVIWPGGSTNYNSALMSRVTISKDNSKSQVSLKMSSLTAADTAVYYCARVTGTWYFDVWGQGTTVTVSSGGGGSGGGGSGGGGSDIQMTQSPSSLSASLGDRVTISCSASQGISNYLNWYQQKPDGTVKLLIYYTSTLHSGVPSRFSGSGSGTDYTLTISSLQPEDIATYYCQQYSKLPWTFGCGTKLEIK
heavy: not shown
notes: IgG1 subtype; full-length TNFR2 antibody with 4-1BB scFv at the C-terminus of the light chains
As for B2, the “EC50 (read off the curve)” value is ~80 pM with Human-TNFR2-His [3], ~300 pM with Human 4-1BB His [4], ~400 pM with Human 4-1BB Fc and ~200 pM with Human TNFR2 mFc.

B3: Antibody D (bispecific antibody, human IgG1, kappa)
light: EVQLVQSGAEVKKPGATVKISCKVSGYSITDYLLHWVQQAPGKCLEWMGWIDPEDAKTKYGQKFQSRVTITADTSTDTAYMELSSLRSEDTAVYYCAANSGTGTMDAWGQGTLVTVSSGGGGSGGGGSGGGGSDIVMTQSPATLSVSPGERATLSCKASQNVGSNVDWYQQKPGQSPRVLIYKASIRYTGIPARFSGSGSGTEFTLTISILQSEDFAVYFCMQSKSYPITFGCGTKLEIKGGGGSGGGGSGGGGSDIQMTQSPSSLSASLGDRVTISCSASQGISNYLNWYQQKPDGTVKLLIYYTSTLHSGVPSRFSGSGSGTDYTLTISSLQPEDIATYYCQQYSKLPWTFGGGTKLEIKRTVAAPSVFIFPPSDEQLKSGTASVVCLLNNFYPREAKVQWKVDNALQSGNSQESVTEQDSKDSTYSLSSTLTLSKADYEKHKVYACEVTHQGLSSPVTKSFNRGEC
heavy: not shown
notes: IgG1 subtype; full-length 4-1BB antibody with TNFR2 scFv at the N-terminus of the light chains
In the case of B3, the binding result with Human-TNFR2-His [3], with Human 4-1BB His [2] and with Human TNFR2 mFc was “binds” each time.
